Results published in patent publication US20080113905A1 (Eli Lilly, published 2008).
Groups on a side chain read outwards from the residue. No end group written: not given here. *: point of attachment. DSPE = distearoyl phosphatidyl ethanolamine, CCCCCCCCCCCCCCCCCC(=O)OC[C@H](COP(=O)(O)OCCN*)OC(=O)CCCCCCCCCCCCCCCCC; maleimide = Maleimide, used for thiol-reactive attachment of PEG to a Cys (thioether bond)

Target: human GLP-1 receptor (human, UniProt P43220 24-463)
Assay: cell-based or functional assay

Row | in vitro potency (EC50) in the CRE-BLAM reporter assay on HEK-293 cells expressing the human GLP-1 receptor, relative to V8GLP-1 equal to 100% [%] | Binder
1 | 18 | HVEGTFTSDVSSYLEGQAAKEFIAWLVKGRGC([maleimide-PEG 3.4 kDa-DSPE]) [V8C38-3.4 kDa DPSE-PEG]
2 | 0.7 | HVEGTFTSDC([maleimide-PEG 40 kDa branched])SSYLEEQAAKEFIAWLVKGRG [V8E22C16-40 kDa PEG]
3 | 3 | HVEGTFTSDVSSYLEGQAAKEFIAWLVKGRGC([maleimide-PEG 40 kDa branched]) [V8C38-40 kDa PEG]
4 | 4 | HVEGTFTSDC([maleimide-PEG 3.4 kDa-DSPE])SSYLEGQAAKEFIAWLVKGRG [V8C16-3.4 kDa DPSE-PEG]
